# Measurements: the Immune Epitope Database (IEDB)
# Experiments:
# Assay in all cases: IEDB peptide-MHC binding, purified MHC/competitive/radioactivity; ≥ and ≤ were set here for values at or beyond the usual limits of such assays
# Conditions in all cases: source organism: Bordetella pertussis
# HLA-B*57:01 = target: HLA-B*57:01
# HLA-B*44:03 = target: HLA-B*44:03
# HLA-A*02:01 = target: HLA-A*02:01
# HLA-B*53:01 = target: HLA-B*53:01
# HLA-B*35:01 = target: HLA-B*35:01
# HLA-B*07:02 = target: HLA-B*07:02
sequence,measurement,setting,value
AARVAGDNY,IC50,HLA-B*57:01,32.3 µM
AEIAFYPKE,IC50,HLA-B*44:03,0.48 µM
AQVTVAGRY,IC50,HLA-B*44:03,3.25 µM
EGGKLRGKD,IC50,HLA-A*02:01,≥ 78.1 µM
FPTRTTAPG,IC50,HLA-B*53:01,0.894 µM
GEAMVLVYY,IC50,HLA-B*35:01,36.4 µM
HANHYGTRI,IC50,HLA-B*53:01,52.1 µM
IIKDAPPGA,IC50,HLA-A*02:01,15.4 µM
IIQEFAADL,IC50,HLA-A*02:01,4.15 µM
ILAGALATY,IC50,HLA-B*35:01,4.29 µM
KATVTTVQV,IC50,HLA-B*57:01,35.2 µM
LAGSGLFRM,IC50,HLA-B*35:01,0.767 µM
MAPVMGACM,IC50,HLA-B*35:01,5 µM
MPKAPELDL,IC50,HLA-B*07:02,21 µM
RARRALRQD,IC50,HLA-B*57:01,13.5 µM
RETFCITTI,IC50,HLA-B*44:03,0.214 µM
RPSVNGGRI,IC50,HLA-B*07:02,0.348 µM
RRFTHADGW,IC50,HLA-B*57:01,55.9 µM
RSGARATSL,IC50,HLA-B*57:01,21.9 µM
SVKVAKKLF,IC50,HLA-B*57:01,≥ 70.4 µM
TAPVTSPAW,IC50,HLA-B*53:01,4.36 µM
TEAQGVQVR,IC50,HLA-B*44:03,19.9 µM
TLSSAHGNV,IC50,HLA-A*02:01,48.6 µM
VKLGGVYEA,IC50,HLA-A*02:01,9.59 µM
